Data from US20250340631A1 (HARBOUR BIOMED SHANGHAI, published 2025).
Like-named read-outs stand apart in the source and are kept apart here.

Legend:
[1] = molecular target: T1, human CD3 on Jurkat cells (human, UniProt P07766 23-207); assay: FACS on Jurkat cells (CD3)
T1 construct: whole, on cells; on cells it stands in the whole CD3/TCR complex; also called CD3-expressing cells
Description: (§1) Antibodies were assayed for binding affinity by FACS. Test cells include HEK293/hCLDN18.2, HEK293/hCLDN18.1, NUGC4_D8 and Jurkat cells. […] The cell density was adjusted to 10⁶ cells/mL, and 50 μL of the cell suspension was added to each well of a 96-well plate. Antibodies were diluted to different concentrations with FACS buffer, and 50 μL of the antibody dilution was added to each well of the 96-well plate. After 2 h of incubation at 4° C., the plate was washed twice with FACS buffer. […] After 1 h of incubation at 4° C., the plate was washed twice with FACS buffer. The cells were resuspended in fixative solution, and then the fluorescence of the cells was monitored using an FACS instrument (ACEA NovoCyte).

human CLDN18.2 [2] = molecular target: human CLDN18.2 (human); assay: cell-based or functional assay
[3] = molecular target: CLDN18.2 of SNU620 cells (methionine to leucine at amino acid 149) (human, UniProt P56856-2 1-261); assay: cell-based or functional assay
CLDN18.2 of SNU620 cells (methionine to leucine at amino acid 149), sequence (P56856 other isoform, or with tags, fused parts or gaps limits assumed): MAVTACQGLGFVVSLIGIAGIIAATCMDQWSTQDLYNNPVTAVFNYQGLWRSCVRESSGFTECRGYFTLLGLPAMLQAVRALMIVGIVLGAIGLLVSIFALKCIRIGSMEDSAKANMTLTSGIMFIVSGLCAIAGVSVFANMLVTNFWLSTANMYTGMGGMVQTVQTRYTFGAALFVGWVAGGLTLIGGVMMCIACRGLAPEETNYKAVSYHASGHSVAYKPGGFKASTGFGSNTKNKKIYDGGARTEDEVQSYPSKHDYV

[4] = molecular target: T1, human CD3 on Jurkat cells; assay: FACS on Jurkat cells (CD3); remark: listed apart in the source
Description: as §1

human CLDN18.2 [5] = molecular target: T2, human CLDN18.2 (human); assay: FACS on HEK293/hCLDN18.2 cells
T2 construct: the HEK293 line was made with a GenScript plasmid; also called hCLDN18.2

human CLDN18.2 [6] = molecular target: T2, human CLDN18.2; assay: FACS on NUGC4_D8 cells

T1 sequence (P07766 23-207): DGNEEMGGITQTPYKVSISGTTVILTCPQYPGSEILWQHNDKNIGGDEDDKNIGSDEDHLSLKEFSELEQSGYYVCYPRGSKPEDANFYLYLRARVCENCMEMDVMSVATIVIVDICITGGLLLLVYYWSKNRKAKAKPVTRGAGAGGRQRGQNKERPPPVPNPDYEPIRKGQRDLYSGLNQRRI

binding result [1]	TDCC, Titer EC50 (pM), NUGC4_D8 (human CLDN18.2 [2]) [pM]	TDCC, Titer EC50 (pM), SNU620 [3] [pM]	binding result [4]	EC50 (human CLDN18.2 [5]) [nM]	EC50 (human CLDN18.2 [6]) [nM]	Binder
binds	21.9	313	–	–	–	PR005422 (bispecific antibody, human IgG1, lambda, L234A L235A, structure 1; CD3 Fab from PR003886, CLDN18.2 VH from PR007247; LALA) EVQLVESGGGLVQPGGSLRLSCAASGFTFSSYWMYWVRQVPGKGLVWVSHINPLGSTTQYADSVKGRFTISRDNAKNMLYLQMNSLRAEDTAVYYCARDFPVLGGSHFDFQHWGQGTLVTVSSGGGGSGGGGSGGGGSEVQLVESGGGLVQPGGSLRLSCAASGFTFSSYWMYWVRQVPGKGLVWVSHINPLGSTTQYADSVKGRFTISRDNAKNMLYLQMNSLRAEDTAVYYCARDFPVLGGSHFDFQHWGQGTLVTVSSASEPKSSDKTHTCPPCPAPEAAGGPSVFLFPPKPKDTLMISRTPEVTCVVVDVSHEDPEVKFNWYVDGVEVHNAKTKPREEQYNSTYRVVSVLTVLHQDWLNGKEYKCKVSNKALPAPIEKTISKAKGQPREPQVCTLPPSREEMTKNQVSLSCAVKGFYPSDIAVEWESNGQPENNYKTTPPVLDSDGSFFLVSKLTVDKSRWQQGNVFSCSVMHEALHNHYTQKSLSLSPGK heavy: not shown light: QAVVTQEPSLTVSPGGTVTLTCRSSTGAVTTSNYANWVQQKPGQAPRGLIGGTNKRAPWTPARFSGSLLGDKAALTLLGAQPEDEAEYFCALWYSNLWVFGGGTKLTVLGQPKAAPSVTLFPPSSEELQANKATLVCLISDFYPGAVTVAWKADSSPVKAGVETTTPSKQSNNKYAASSYLSLTPEQWKSHRSYSCQVTHEGSTVEKTVAPTECS
–	251	17.8	binds	33.1	–	PR004603 (bispecific antibody, human IgG1, lambda, L234A L235A, structure 1 (2+1 Fab-Fc-Dual VH); CD3 Fab from PR003886, CLDN18.2 VH from PR004227; IgG1 knob/hole, LALA) EVQLVESGGGLVQPGGSLRLSCAASGFTFSSYWMHWVRQAPGKGLEWVSYINNDGSSTRYADSVKGRFTISRDNAKNTLYLQMNSLRAEDTAVYYCTEAPPYGNYERDYWGQGTLVTVSSGGGGSGGGGSGGGGSEVQLVESGGGLVQPGGSLRLSCAASGFTFSSYWMHWVRQAPGKGLEWVSYINNDGSSTRYADSVKGRFTISRDNAKNTLYLQMNSLRAEDTAVYYCTEAPPYGNYERDYWGQGTLVTVSSASEPKSSDKTHTCPPCPAPEAAGGPSVFLFPPKPKDTLMISRTPEVTCVVVDVSHEDPEVKFNWYVDGVEVHNAKTKPREEQYNSTYRVVSVLTVLHQDWLNGKEYKCKVSNKALPAPIEKTISKAKGQPREPQVCTLPPSREEMTKNQVSLSCAVKGFYPSDIAVEWESNGQPENNYKTTPPVLDSDGSFFLVSKLTVDKSRWQQGNVFSCSVMHEALHNHYTQKSLSLSPGK heavy: not shown light: QAVVTQEPSLTVSPGGTVTLTCRSSTGAVTTSNYANWVQQKPGQAPRGLIGGTNKRAPWTPARFSGSLLGDKAALTLLGAQPEDEAEYFCALWYSNLWVFGGGTKLTVLGQPKAAPSVTLFPPSSEELQANKATLVCLISDFYPGAVTVAWKADSSPVKAGVETTTPSKQSNNKYAASSYLSLTPEQWKSHRSYSCQVTHEGSTVEKTVAPTECS
–	142	34.5	binds	15.7	90.7	PR005072 (bispecific antibody, human IgG1, lambda, L234A L235A, structure 1; CD3 Fab from PR003886, CLDN18.2 VH from PR004533; LALA) EVQLVESGGGLVQPGGSLRLSCAASGFTFSSYWMHWVRQVPGKGLVWVSRINSDGSRTIYADSVKGRFTISRDNAKNTLYLQMNSLRAEDTAVYYCARGEDHDILTGYPIRGQGTTVTVSSGGGGSGGGGSGGGGSEVQLVESGGGLVQPGGSLRLSCAASGFTFSSYWMHWVRQVPGKGLVWVSRINSDGSRTIYADSVKGRFTISRDNAKNTLYLQMNSLRAEDTAVYYCARGEDHDILTGYPIRGQGTTVTVSSASEPKSSDKTHTCPPCPAPEAAGGPSVFLFPPKPKDTLMISRTPEVTCVVVDVSHEDPEVKFNWYVDGVEVHNAKTKPREEQYNSTYRVVSVLTVLHQDWLNGKEYKCKVSNKALPAPIEKTISKAKGQPREPQVCTLPPSREEMTKNQVSLSCAVKGFYPSDIAVEWESNGQPENNYKTTPPVLDSDGSFFLVSKLTVDKSRWQQGNVFSCSVMHEALHNHYTQKSLSLSPGK heavy: not shown light: QAVVTQEPSLTVSPGGTVTLTCRSSTGAVTTSNYANWVQQKPGQAPRGLIGGTNKRAPWTPARFSGSLLGDKAALTLLGAQPEDEAEYFCALWYSNLWVFGGGTKLTVLGQPKAAPSVTLFPPSSEELQANKATLVCLISDFYPGAVTVAWKADSSPVKAGVETTTPSKQSNNKYAASSYLSLTPEQWKSHRSYSCQVTHEGSTVEKTVAPTECS
